The values below come from patent publication US20180171001A1.

Positions count from the first letter of the chain named.

What all share (test): cell-based or functional assay
Test [1] addresses Env of HIV-1 strain ZM53M.PB12 (HIV-1).
For test [2], the target named is Env of HIV-1 strain H086.8 (HIV-1).
In test [3] the target is Env of HIV-1 strain 3415.v1.c1 (HIV-1).
The target in test [4] is Env of HIV-1 strain 251-18 (HIV-1).
Test [5] deals with Env of HIV-1 strain 250-4 (HIV-1).
Test [6] concerns the target Env of HIV-1 strain R1166.c1 (HIV-1).
In test [7] the target is Env of HIV-1 strain 3365.v2.c20 (HIV-1).
For test [8], the target named is Env of HIV-1 strain PVO.4 (HIV-1).
The target of test [9] is Env of HIV-1 strain REJO4541.67 (HIV-1).
The target in test [10] is Env of HIV-1 strain 3016.v5.c45 (HIV-1).
Test [11] addresses Env of HIV-1 strain 231965.c1 (HIV-1).
Test [12] concerns the target Env of HIV-1 strain YU2.DG (HIV-1).
Test [13] deals with Env of HIV-1 strain X1254_c3 (HIV-1).
In another test the target is Tier 2 15 virus panel.
The target of test [14] is Env of HIV-1 strain ZM109F.PB4 (HIV-1).
Test [15] concerns the target Env of HIV-1 strain Du172.17 (HIV-1).
In the next test the target is Env of MuLV.

B1: γ52κ5 (antibody, V domains shown)
VH: QIHLVQSGTEVKKPGSSVTVSCKAYGVNTFGLYAVNWVRQAPGQSLEYIGQIWRWKSSASHHFRGRVLISAVDLTGSSPPISSLEIKNLTSDDTAVYFCTTTSTYDRWSGLHHDGVMAFSSWGQGTLISVSA
VL: DIQMTQSPSTLSASTGDTVRISCRASQSITGNWVAWYQQRPGKAPRLLIYRGAALLGGVPSRFRGSAAGTDFTLTIGNLQAEDFGTFYCQQYDTYPGTFGQGTKVEVKR
In the case of B1, the neutralization IC50 in test [1] is 3.13 µg/mL; in test [2], 0.175 µg/mL; in test [3] it was 0.12 µg/mL; in [4] it was 0.048 µg/mL; in [5] it was > 15 µg/mL; in [6] it was 0.319 µg/mL. Further, the neutralization IC50 in [7] is > 15 µg/mL; in [8], 0.019 µg/mL; in [9], 0.035 µg/mL; in [10] it was 0.017 µg/mL; in [11], 0.094 µg/mL; in [12] it was 0.065 µg/mL. For the same molecule, the neutralization IC50 in test [13] is 0.504 µg/mL; in test [14], > 15 µg/mL. In addition, the mean neutralization IC50 in the test with Tier 2 15 virus panel stood at 0.45 µg/mL. Moreover, the potency against 8ANC195 with Tier 2 15 virus panel stood at 5 fold.

B2: 8ANC195 IgG (antibody, V domains shown)
VH: B1 VH with R107K
VL: DIQMTQSPSTLSASIGDTVRISCRASQSITGNWVAWYQQRPGKAPRLLIYRGAALLGGVPSRFSGSAAGTDFTLTIGNLQAEDFGTFYCQQYDTYPGTFGQGTKVEV
As to B2, the neutralization IC50 in test [1] was 9.63 µg/mL; in test [2], 0.095 µg/mL; in [3], 2.4 µg/mL; in [4], 0.284 µg/mL; in test [5], > 50 µg/mL; in test [6], 0.986 µg/mL. Further, the neutralization IC50 is > 30 µg/mL in test [7]; 10.8 µg/mL in test [15]; 0.52 µg/mL in test [8]; 0.08 µg/mL in [9]; 0.195 µg/mL in test [10]; 0.514 µg/mL in test [11]. Also, the neutralization IC50 is > 23 µg/mL in the test with Env of MuLV, 0.79 µg/mL in test [12], 1.52 µg/mL in test [13] and > 30 µg/mL in test [14]. Further, in the test with Tier 2 15 virus panel, the mean neutralization IC50 came to 2.3 µg/mL.
